Assay results as given in the supplement of paper PMC12764529.
± gives the half width of the 95% confidence interval.

What was measured:
[1] = folding stability dG unfold from chymotrypsin proteolysis; higher = more stable
How it was run: (§1)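 Unfolding free energy was derived, per protease or combined, by relating Bayesian-fitted K50 values from sequencing counts to a sequence-predicted unfolded-state K50 and a shared folded-state K50. The underlying digests exposed cysteine-free mini-proteins under 80 residues, in a PA-tagged cDNA display construct, to trypsin and chymotrypsin at 11 threefold-diluted concentrations and to a no-protease condition. A filter kept only designs with AlphaFold2 dimer inter-PAE above 15.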

[2] = folding stability dG unfold from trypsin proteolysis; higher = more stable
How it was run: as §1

[3] = folding stability dG unfold (combined trypsin and chymotrypsin); higher = more stable
How it was run: as §1

Sequence	folding stability dG unfold [1] [kcal/mol]	folding stability dG unfold [2] [kcal/mol]	folding stability dG unfold [3] [kcal/mol]
SAMKYTVKLPPGAEPIQPEELAALPYVEVVEVEISDGEDGTRTLTITVSPDVPEENVEKLKEYIEKKLKSAG [r14_421_JUSTAS]	3.17 ± 0.043	2.93 ± 0.077	3.12 ± 0.085
SAGGMIAEIKPIPPNVPDGATATITFPDGTPAEAELRTEPLEDGPRRVVLKLKGKEGEIELEFVLPLSAGGS [r8_360_TrMRF]	-0.488 ± 0.31	0.16 ± 0.13	0.0112 ± 0.099
SAPDVGPEERARRLIEEARAEVEAARAAGDPSVPRRVVFDELAVAHPEEAARILEEAARLGIPVEVRPPSAG [r14_908_JUSTAS]	0.98 ± 0.044	0.252 ± 0.11	0.748 ± 0.083
SAGGSAKWLPAEELADELADTLMQRHGYEIKNVDVEVIDPDEGYIRVNIEYEHPGGRHKHDIIIPVSAGGSA [r15_32_TrROS]	0.851 ± 0.092	0.1 ± 0.18	0.662 ± 0.17
SAGGMPVTVTLDLSDLTPEEIERLLTEAVEAHPDPAAVTVRVKTDDPALEAAVRAAAEALPAVAVTLESAGG [r13_718_JUSTAS]	0.263 ± 0.051	-0.86 ± 0.54	0.0912 ± 0.21
SAGGSAGGSAGGPVFTPVGAGDEDTVTTETLPDGSPVLRYTVPGTGVVEVALPDGTLLAESAGGSAGGSAGG [r11_601_JUSTAS]	-1.66 ± 0.79	-0.722 ± 0.073	-0.883 ± 0.22
SAGGSAGGNKPIMVRIKIWHDNGKTRRFFVQIPEGFDDPSELASELAKEFNKQYPNYRIEVEPFSAGGSAGG [r6_132_TrROS]	2.86 ± 0.03	2.55 ± 0.052	2.78 ± 0.13
SAGPMTLEILYKRPANEPFTLEDLELAKEVEEAVAALVPSKYKVRIKSIEYEKYPDYYYIRVTIEVEKPSAG [r5_121_TrMRF]	4.71 ± 0.061	4.57 ± 0.13	4.64 ± 0.083
SAGGSAGGSEPEEPEYILIERVEAGEKPKITITFKDGTKKEIEVKPGETILIKVPKDAKIEVESAGGSAGGS [r12_553_TrROS_Hall]	1.1 ± 0.13	0.983 ± 0.067	0.94 ± 0.2
SKPDAPKIVELLRELFPDLEITSVSYDPETGTYTVTFPDGVVAEVHVDPNGNVHIVLRTPTSERTFTLPVSA [r9_304_TrMRF]	2.38 ± 0.043	2.68 ± 0.1	2.55 ± 0.07
SAGGSAGGSAGTKTITLPNGLTLTIKPDEPVTITLVKVDPETNEIVEEKTITVYVKEDDLSAGGSAGGSAGG [r11_497_TrROS_Hall]	1.19 ± 0.061	1.08 ± 0.021	1.2 ± 0.076
SAGEKKLTEEEIKKLVEELLKKLKPGEKEKVTLEIELTLEDGRKVKIRITVEVKDGKLVVKIEVEELPSAGG [r19_220_TrROS_Hall]	3.64 ± 0.52	3.65 ± 0.27	3.68 ± 0.46
SAGGSAGGSPPPRFRVVVVFEDGTRREFDLTPEELVAFAEVVPDVVVEELPPGEVRITVRLPGSAGGSAGGS [r20_231_TrMRF]	3.11 ± 0.056	2.45 ± 0.081	2.91 ± 0.1
SAMIKVVLPGAKLEKVEVFPDKTVKAVFVAKDHLVEIYFDPETGKALIRVYDGEKEYEFVLDVHPDDVISAG [r14_218_TrMRF]	4.8 ± 0.25	3.47 ± 0.31	4.33 ± 0.4
SAGGGKKYRVTLELTLPDGTKLTLEFEFEVVPPAVPKPVVTTSLDDIAEFDPETGTAIDKKNKKPIPLPSAG [r5_807_TrMRF]	3.1 ± 0.065	1.5 ± 0.12	2.66 ± 0.19
SAGGSAGGSSYTVSEDPNSSSTTITDPVTGRTVLRSPSSWTVVDPETGEEKSFPAGTVVTLPESAGGSAGGS [r12_584_JUSTAS]	1.06 ± 0.056	-0.146 ± 0.13	0.724 ± 0.042
SAGGSAGGSAGGASLKVVEREVEYYDPETGETVRVKALVTVDPNSDKEILDPEEKEKLLSSAGGSAGGSAGG [r7_557_JUSTAS]	0.795 ± 0.016	1.02 ± 0.034	0.907 ± 0.087
SAGGSAGGPKEYYRVTVYVRNKDGEWEKVAEIEVPGMTEEELKELLAKLGLPPGAEVEIKIEKVSAGGSAGG [r6_88_TrROS_Hall]	4.92 ± 0.15	5.02 ± 0.49	5.01 ± 0.21
SAGGSAGGSAAPLEARLVSVSRDPAGNRLHAVYVVRDPSTGEQYLVTFSADPTSISVRVERVSAGGSAGGSA [r18_444_TrMRF]	4.48 ± 0.089	2.69 ± 0.12	3.96 ± 0.071
SAGGSASLEEVIESVTKPLGAKGEIDPETGVTYVQDPSGENLTLETEDGRPLKVTYEPEGKWTAVESAGGSA [r15_256_JUSTAS]	-0.199 ± 0.45	0.301 ± 0.046	0.24 ± 0.28
SAGGPPRTVTVFVNDPDGNTYTFTFSDSVPLSTVVANVSKTLGVPLTVDSVTVHPDGTVTITVTNPGSAGGS [r8_285_TrMRF]	5 ± 0.06	4.57 ± 0.14	4.96 ± 0.062

Sequence	folding stability dG unfold [1] [kcal/mol]	folding stability dG unfold [2] [kcal/mol]	folding stability dG unfold [3] [kcal/mol]
SMIKIKLKNGMEITIEKTPEKVKIKLKATGKEIELPLEELENMTEEELLEKLRKLAEELGMEVEEVEIEPSA [r9_1211_TrROS_Hall]	3.43 ± 0.083	3.18 ± 0.14	3.38 ± 0.11
SMSRPVEVEFELPLEGEGPVRLRATLVVDPESGVVEIPVRARFPEREEDVDLPPELLERLARRVLEELGGSA [r9_1136_TrMRF]	1.25 ± 0.034	0.744 ± 0.031	1.1 ± 0.034
SYKIHIMRPNGEMEEIPIKHPDGWKINIHRGPNKPFYIMVERYDPDGGPKPKPVIPIDSPEQALDKLKDASA [r9_942_TrROS]	-0.11 ± 0.3	-0.123 ± 0.18	0.0153 ± 0.2
SAGGSAMIEIEIVKPNASPEEAEKLEKEVREKLLEEGVPEEVVKEVNIKVIVKPVKKDKNNNPILESAGGSA [r15_684_JUSTAS]	0.977 ± 0.19	-0.215 ± 0.15	0.811 ± 0.2
SAMVLVKIELYDPENEEPLATAEFVVPEEDLEAFVEEAKKIFGVAEDAFIKVEAAPLEPLTDESGEEVLSAG [r14_297_TrMRF]	1.786 ± 0.014	2.08 ± 0.12	1.94 ± 0.062
SAGGSAGGSALEVPSNYLVEVRFPNETRLIPVEDLDAFFEAYPDVPWTDIRVLDPKTGKPISAGGSAGGSAG [r3_134_TrMRF]	1.923 ± 0.0098	2.47 ± 0.04	2.19 ± 0.032
SAGGSAGGSKTILIVLPPGEELTPEQLKALAAALPPDATLTILVYDPETKELHVFTFKLPEGLSAGGSAGGS [r12_913_TrROS_Hall]	4.14 ± 0.054	2.99 ± 0.069	3.87 ± 0.081
SAGAMVTHTITVKIDPSELDKLEEILEKIKNSGPVKAIEPVSFEPGTGVYTVKVTADPATIKLVEEALKSAG [r5_193_JUSTAS]	4.14 ± 0.062	4.51 ± 0.28	4.24 ± 0.069
SAGGSAGGSAGGIAEALKAAFPDEGVEVVSIHPDGKVEVRVDGTPELREKVEKAVKELLSSAGGSAGGSAGG [r11_418_TrMRF]	0.621 ± 0.067	1.08 ± 0.087	0.798 ± 0.18
SAGWISPKQLRHALRNGKPIKIYMPNPQNKEHAKNWLRQETGLPKEEQKELLKDVKIEPMPPNDPNFKKSAG [r5_368_TrROS]	0.497 ± 0.47	0.128 ± 0.33	-0.0521 ± 0.45
SAGGSAGGSNPRYRIVLPISREQLEELGLTPEQVAEAIREAFPSLSPDTRFYFPEDGNLVVVGSAGGSAGGS [r12_50_TrMRF]	1.16 ± 0.012	1.58 ± 0.024	1.4 ± 0.026
SAGGSAGGSAGGKKTLVIEFDLEPGGLTAEEIEELLRPYTGKEVRLETHPDGKPVAVVEGSAGGSAGGSAGG [r7_330_TrMRF]	-0.616 ± 0.44	-0.488 ± 0.1	-0.393 ± 0.16
SMRVVLVRPVPPELKEAELELRLPLPDGSEVEVKAETGEDFVVVTIELDDESAAEAVVEELEKLLEELLGSA [r9_790_TrMRF]	1.17 ± 0.034	0.926 ± 0.019	1.13 ± 0.053
SAGGSAGGSAGKMYRITVTNENGEKLEIEVPEEVKTEEELKEELKKKIPNVVEVKIEEVPSAGGSAGGSAGG [r11_311_TrROS_Hall]	0.433 ± 0.14	0.242 ± 0.096	0.377 ± 0.25
SAGGGITITLPDGSVIEIEPVSTFTNEDGQPVTKIKATLTDPVTGTSVEADIYLFPDGGVKIDLKPGSAGGS [r16_651_TrMRF]	2.35 ± 0.031	2.3 ± 0.051	2.35 ± 0.062
SETVEIEIELPDGTKVTITVDKDGKVHITIEVPEDNPELLEKGSIEELAKKLAEELGLSEKDVEVTVLPPSA [r9_401_TrROS_Hall]	2.45 ± 0.24	2.98 ± 0.29	2.8 ± 0.27
SAGGSAGGSAGVITIPLDDINDLPPGFKVKPNNNSMMIEDGDNPIHIPPGEPVQIEPPDESAGGSAGGSAGG [r17_91_TrROS]	0.346 ± 0.097	0.65 ± 0.1	0.466 ± 0.22
SAGDVKVITIKNPDGWQASIALNEDGTVYLMFNSPDQFLDLIEDLGFPITSVEMHPNGMMIFTIELPPSAGG [r19_257_TrROS]	4.26 ± 0.17	2.27 ± 0.061	3.41 ± 0.18
SAGGSAGGSKFEITEVSVELVEVDGKLYLKVSMTIKNEDGSTYKISLVYDLENNELYLSIEKVSAGGSAGGS [r12_1035_TrROS_Hall]	5.7 ± 0.16	4.12 ± 0.43	5.87 ± 0.37
SAGEIKIEIKKNKNGKLTIRITVKKKDGEEKEIEIEVPENMTAEELAKELEKKGFEITEIKSIEELLKSAGG [r19_263_TrROS_Hall]	3.83 ± 0.25	3.89 ± 0.34	3.98 ± 0.6
SAGGKIPKNAKILEVEFDPETGYIRIKVEFYDKNGKLIKKAEITIPILPVPPLSPEDIEKLLKALASSAGGS [r16_697_TrMRF]	3.85 ± 0.17	3.15 ± 0.12	3.59 ± 0.17
